Measurements taken from patent US12606638B2, “Dosing regimens for use with PCSK9 inhibitors” (Sanofi Biotechnology, priority 2013, dated 2026).
Values joined by “and” are separate entries in the source; they are usually repeats but may differ in a detail not shown here. Equal values may be shown once. Read-outs that look alike come from different tables or passages of the source.

Assays:
healthy subjects [1] = experiment: Phase 1 study in healthy subjects: pharmacodynamic profile (serum lipid parameters) of alirocumab alone or on top of ezetimibe or fenofibrate; format: in vivo, human; conditions: for Percent change in LDL-C during the run-in period (Day −29 to Day −1): ezetimibe 10 mg/day or fenofibrate 160 mg/day alone, before alirocumab, value on Day −1, mean (SEM); for Mean percent change in LDL-C from Day −1 baseline to Day 71: additional baseline Day −1 (start of alirocumab injection); for Mean percent change in LDL-C from Day −29 baseline to Day 71: main baseline Day −29 (start of placebo/EZE/FENO run-in), Day 71 = 14 days after 3rd alirocumab dose, 150 mg SC Q4W, N=24
Protocol: (§1) The primary objective of the study was to assess the pharmacodynamic profile of alirocumab administered either alone or on top of ezetimibe or fenofibrate, based on low density lipoprotein cholesterol (LDL-C).
The study evaluated 72 healthy subjects.
Alirocumab was administered subcutaneously in the abdomen.
Ezetimibe was formulated as a 10 mg over-encasulated tablet (and matching placebo ezetimibe capsule). Ezetimibe was administered orally.
Fenofibrate was formulated at a 160 mg coated tablet. Fenofibrate was administered orally during a meal.
The duration of treatment was as follows.
The pharmacodynamic criteria were as follows. The primary endpoint was percent change in calculated serum LDL-C from baseline (D-29). The secondary endpoints were absolute change from baseline in calculated LDL-C, total cholesterol (TC), high density lipoprotein cholesterol (HDL-C), non-HDL-C, triglycerides (TG), apolipoprotein B (ApoB), apolipoprotein A1 (ApoA1), and lipoprotein a (Lp[a]) analyzed in percent and absolute change from baseline.
The blood sampling for lipid parameters (ie, LDL-C, TC, HDL-C, non-HDL-C, TG, ApoB, ApoA1, Lp[a]) were performed in the morning, in the fasted condition (at least 10-hours fasted and refrained from smoking), before any drug intake.
Blood samples were collected at screening; Day −1 of the run-in phase; and Days 8, 15, 22, 29±1, 57±1, 64±1, 71±1, 78±1, 85±1, 99±2, and 120±3 of the treatment phase.

free PCSK9 = experiment: Phase 1 study: circulating levels of free PCSK9; format: in vivo, human; conditions: for Free PCSK9 level at end of run-in period: prior to alirocumab treatment, from 152 (FENO) and 151 (EZE) at start of run-in
Text: as §1

[2] = system: patients with genotype-confirmed hoFH; conditions: ezetimibe 10 mg/day added to maximal dose of statins; cited from earlier work
[3] = in vivo
[4] = in vivo; remark: listed apart in the source
Protocol: Samples for the determination of anti-drug antibody (ADA) levels in serum were collected at Day −28 of the run-in phase; Days 29, 57, 85, and 120 of the treatment phase; and the EOS visit.
In neat serum samples, the validated lower limit of detection was approximately 1.5 ng/mL.

healthy subjects [5] = experiment: Phase 1 study: safety (adverse events, laboratory, vital signs, ECG); conditions: for Patients with any TEAEs, %: N = 24 per group
[6] = additional baseline Day −1, 14 days after 3rd alirocumab dose
[7] = listed as Alirocumab 150 mg Q4W + placebo
[8] = main baseline Day −29, 14 days after 3rd alirocumab dose
[9] = median, additional baseline Day −1, 14 days after 3rd alirocumab dose
[10] = median, main baseline Day −29, 14 days after 3rd alirocumab dose

O=C1[C@H](CC[C@H](O)c2ccc(F)cc2)[C@@H](c2ccc(O)cc2)N1c1ccc(F)cc1 [ezetimibe]
Percent change in LDL-C during the run-in period (Day −29 to Day −1) (healthy subjects [1]): −19.8 (2.1) %
Free PCSK9 level at end of run-in period (free PCSK9): 142 ng/mL
Total reduction of LDL-C levels [2]: 27%

CC(C)OC(=O)C(C)(C)Oc1ccc(C(=O)c2ccc(Cl)cc2)cc1 [fenofibrate, reference compound]
Percent change in LDL-C during the run-in period (Day −29 to Day −1) (healthy subjects [1]): −25.9 (3.2) %
Free PCSK9 level at end of run-in period (free PCSK9): 217 ng/mL

alirocumab
Percent change in LDL-C from Day −1 baseline to Day 85 (healthy subjects [1]; 28 days after the 3rd administration of alirocumab): −47.03%
Mean percent change in LDL-C from Day −1 baseline to Day 71 (healthy subjects [1]; 14 days after 3rd alirocumab dose, listed as Alirocumab 150 mg Q4W + placebo): −47.4%
Mean percent change in LDL-C from Day −1 baseline to Day 71 (healthy subjects [1]; 14 days after 3rd alirocumab dose, listed as alirocumab alone): −47.39% and −47.4 (3.2) %
Mean percent change in Apolipoprotein B from Day −1 baseline to Day 71 (healthy subjects [1]; [6]): −38.4%
Mean percent change in HDL-C from Day −1 baseline to Day 71 (healthy subjects [1]; [6]): 3.6%
Mean percent change in Non-HDL-C from Day −1 baseline to Day 71 (healthy subjects [1]; [6]): −43.0%
Mean percent change in Total cholesterol from Day −1 baseline to Day 71 (healthy subjects [1]; [6]): −31.5%
LDL-C reductions, sustained over the 28-day dosing interval (healthy subjects [1]; alirocumab 150 mg Q4W monotherapy, regardless of baseline): ~48%
Mean percent change in LDL-C from Day −29 baseline to Day 71 (healthy subjects [1]; [7]): −48.2%
Mean percent change in LDL-C from Day −29 baseline to Day 71 (healthy subjects [1]; listed as alirocumab alone): −47.59% and −48.2 (2.3) %
Mean percent change in Apolipoprotein B from Day −29 baseline to Day 71 (healthy subjects [1]; [8]): −39.1%
Mean percent change in HDL-C from Day −29 baseline to Day 71 (healthy subjects [1]; [8]): 3.3%
Mean percent change in Non-HDL-C from Day −29 baseline to Day 71 (healthy subjects [1]; [8]): −43.0%
Mean percent change in Total cholesterol from Day −29 baseline to Day 71 (healthy subjects [1]; [8]): −31.6%
Median percent change in Lipoprotein (a) from Day −1 baseline to Day 71 (healthy subjects [1]; [9]): −11.7%
Median percent change in Triglycerides from Day −1 baseline to Day 71 (healthy subjects [1]; [9]): −3.9%
Median percent change in Lipoprotein (a) from Day −29 baseline to Day 71 (healthy subjects [1]; [10]): −20.3%
Median percent change in Triglycerides from Day −29 baseline to Day 71 (healthy subjects [1]; [10]): 5.7%
Effect on free PCSK9 after alirocumab injection (free PCSK9; after the 1st and 3rd alirocumab injections): complete suppression
AUClast, Geometric Mean ([3]; human): (306) [38.4] mg · day/l
AUClast, Mean ± SD ([3]; human): 326 ± 125 mg·days/L
CL/F, Mean ± SD ([3]; human): 0.312 ± 0.124 L/day
Cmax, Mean ± SD ([3]; human): 24300 ± 8610 ng/mL
MRT, Geometric Mean ([3]; human): (18.2) [20.7] day
MRT, Mean ± SD ([3]; human): 18.5 ± 3.84 days
t1/2z, Geometric Mean ([3]; human): (8.37) [35.7] day
t1/2z, Mean ± SD ([3]; human): 8.76 ± 3.12 days
Cmax, Mean ± SD ([3]; human, sc, 150 mg): 20400 ± 13500 ng/mL
AUC, Geometric Mean [3]: (318) [58.9]^b mg · day/l
AUC, Mean ± SD [3]: 357 ± 210 mg·days/L
AUCExt (percentage of extrapolation of AUC), Geometric Mean [3]: (22) [44.7] %
AUCExt (percentage of extrapolation of AUC), Mean ± SD [3]: 25 ± 11%
tlast, Median [3]: 69.00 days
Subjects tested ADA positive, % [4]: 16.7%
Subjects tested ADA positive, number [4]: Four out of 24
Abdominal pain (TEAE), % (healthy subjects [5]; N = 24): (8.3) %
Gastroenteritis viral (TEAE), % (healthy subjects [5]; N = 24): (0) %
Headache (TEAE), % (healthy subjects [5]; N = 24): (12.5) %
Influenza (TEAE), % (healthy subjects [5]; N = 24): (8.3) %
Influenza-like illness (TEAE), % (healthy subjects [5]; N = 24): (4.2) %
Nasopharyngitis (TEAE), % (healthy subjects [5]; N = 24): (12.5) %
Patients with any TEAEs, % (healthy subjects [5]; [7]): (50.0) %
Patients with any TEAEs, % (healthy subjects [5]; listed as alirocumab alone): 50.0%
Tolerability (healthy subjects [5]; alone or on top of ezetimibe or fenofibrate, 150 mg Q4W for 3 administrations, healthy subjects): well tolerated
